Test system: Escherichia coli TOP10
Assay: shrunken log2 fold change of peptide-encoding DNA abundance (4.5 h post-induction vs induction); higher = less antimicrobial activity (less host growth inhibition)
Conditions: time post-induction: 4.5 h; library: site-saturation at positions 5, 18, 19, 20
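Further: peptides expressed intracellularly from a pBAD plasmid library in pooled LB shake-flask culture, induced with 0.3% L-arabinose, DNA abundance read by NGS, three biological replicates, DESeq2 with apeglm shrinkage.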

Sequence | shrunken log2 fold change
RRIRDRPPRLPRPRPRPTDDPRP | -0.0281
RRIRQRPPRLPRPRPRPSETPRP | -0.216
RRIRWRPPRLPRPRPRPVLDPRP | 0.0956
RRIRCRPPRLPRPRPRPRETPRP | 0.647
RRIRLRPPRLPRPRPRPKQCPRP | -0.0836
RRIRCRPPRLPRPRPRPTGDPRP | 0.231
RRIRDRPPRLPRPRPRPQKQPRP | 0.086
RRIRIRPPRLPRPRPRPVNCPRP | -0.34
RRIRNRPPRLPRPRPRPWDCPRP | -0.118
RRIRGRPPRLPRPRPRPLWMPRP | 0.343
RRIRFRPPRLPRPRPRPCITPRP | -0.709
RRIRCRPPRLPRPRPRPNPCPRP | -0.209
RRIRWRPPRLPRPRPRPRQRPRP | 0.957
RRIRNRPPRLPRPRPRPIFHPRP | -0.358
RRIRYRPPRLPRPRPRPAQKPRP | -0.0925
RRIRFRPPRLPRPRPRPDKQPRP | -0.0106
RRIRNRPPRLPRPRPRPTSRPRP | -0.129
RRIRCRPPRLPRPRPRPQSPPRP | -0.0224
RRIRARPPRLPRPRPRPDYSPRP | 0.00409
RRIRFRPPRLPRPRPRPQCEPRP | 0.0491
RRIRRRPPRLPRPRPRPSRGPRP | 0.432
RRIRLRPPRLPRPRPRPCFPPRP | -0.206
RRIRDRPPRLPRPRPRPLKDPRP | -0.225
RRIRFRPPRLPRPRPRPAKWPRP | 0.0975
RRIRVRPPRLPRPRPRPHCRPRP | 0.199

Sequence | shrunken log2 fold change
RRIRVRPPRLPRPRPRPCYMPRP | 0.155
RRIRRRPPRLPRPRPRPVMDPRP | -0.0641
RRIRARPPRLPRPRPRPFQHPRP | -0.162
RRIRVRPPRLPRPRPRPVGAPRP | 0.329
RRIRKRPPRLPRPRPRPCVCPRP | 0.0462
RRIRQRPPRLPRPRPRPMQDPRP | -0.0104
RRIRQRPPRLPRPRPRPSAEPRP | 0.117
RRIRLRPPRLPRPRPRPHAMPRP | -0.0654
RRIRWRPPRLPRPRPRPVWMPRP | 0.333
RRIRKRPPRLPRPRPRPCVEPRP | 0.13
RRIRPRPPRLPRPRPRPEQEPRP | 0.278
RRIRTRPPRLPRPRPRPRFAPRP | 0.37
RRIRTRPPRLPRPRPRPNVWPRP | 0.0477
RRIRKRPPRLPRPRPRPEITPRP | 2.03
RRIRERPPRLPRPRPRPIMCPRP | -0.275
RRIRKRPPRLPRPRPRPSPIPRP | 0.0333
RRIRMRPPRLPRPRPRPHHRPRP | -0.0556
RRIRRRPPRLPRPRPRPMVFPRP | 0.182
RRIRCRPPRLPRPRPRPNCNPRP | -0.375
RRIRLRPPRLPRPRPRPNCLPRP | -0.61
RRIRSRPPRLPRPRPRPRQGPRP | 0.185
RRIRNRPPRLPRPRPRPGCEPRP | 0.212
RRIRQRPPRLPRPRPRPQCAPRP | -0.183
RRIRMRPPRLPRPRPRPDIRPRP | -0.00649
RRIRHRPPRLPRPRPRPQWRPRP | 0.324

Sequence | shrunken log2 fold change
RRIRPRPPRLPRPRPRPGKLPRP | -0.4
RRIRARPPRLPRPRPRPGCKPRP | 0.321
RRIRLRPPRLPRPRPRPIIVPRP | -0.0625
RRIRERPPRLPRPRPRPQLHPRP | -0.216
RRIRVRPPRLPRPRPRPKRIPRP | -0.114
RRIRARPPRLPRPRPRPLYAPRP | 0.0495
RRIRKRPPRLPRPRPRPNHSPRP | -0.321
RRIRFRPPRLPRPRPRPAASPRP | 0.0986
RRIRIRPPRLPRPRPRPTHMPRP | 0.578
RRIRCRPPRLPRPRPRPFIEPRP | 0.184
RRIRWRPPRLPRPRPRPSESPRP | 0.0933
RRIRRRPPRLPRPRPRPKVPPRP | -0.0226
RRIRARPPRLPRPRPRPHGIPRP | 0.0225
RRIRLRPPRLPRPRPRPFDAPRP | 0.509
RRIRSRPPRLPRPRPRPKLHPRP | -0.0772
RRIRDRPPRLPRPRPRPCSLPRP | -0.0409
RRIRYRPPRLPRPRPRPLWWPRP | -0.696
RRIRIRPPRLPRPRPRPIWIPRP | -0.269
RRIRVRPPRLPRPRPRPLYGPRP | -0.426
RRIRWRPPRLPRPRPRPKITPRP | 0.0282
RRIRRRPPRLPRPRPRPRDAPRP | 0.736
RRIRFRPPRLPRPRPRPDSVPRP | -0.54
RRIRWRPPRLPRPRPRPQMRPRP | 0.147
RRIRVRPPRLPRPRPRPPYMPRP | -0.592
RRIRWRPPRLPRPRPRPNLSPRP | -0.197

Sequence | shrunken log2 fold change
RRIRMRPPRLPRPRPRPLCKPRP | 0.206
RRIRGRPPRLPRPRPRPLKSPRP | 0.426
RRIRARPPRLPRPRPRPPPRPRP | 1.56
RRIRKRPPRLPRPRPRPRVTPRP | 0.138
RRIRFRPPRLPRPRPRPHYIPRP | -0.0793
RRIRQRPPRLPRPRPRPFFEPRP | 0.0893
RRIRCRPPRLPRPRPRPMNFPRP | -0.383
RRIRVRPPRLPRPRPRPQFRPRP | -1.21
RRIRLRPPRLPRPRPRPSRMPRP | -0.241
RRIRYRPPRLPRPRPRPDFSPRP | 0.0939
RRIRHRPPRLPRPRPRPSEVPRP | -0.277
RRIRPRPPRLPRPRPRPLRGPRP | 0.792
RRIRPRPPRLPRPRPRPLRFPRP | 0.431
RRIRARPPRLPRPRPRPEQRPRP | 0.2
RRIRGRPPRLPRPRPRPAVYPRP | 0.742
RRIRPRPPRLPRPRPRPMTCPRP | -0.251
RRIRLRPPRLPRPRPRPGLPPRP | 0.576
RRIRQRPPRLPRPRPRPGITPRP | -0.103
RRIRNRPPRLPRPRPRPFQCPRP | -0.0493
RRIRDRPPRLPRPRPRPMCTPRP | -0.0135
RRIRRRPPRLPRPRPRPLYKPRP | -0.248
RRIRHRPPRLPRPRPRPHGRPRP | -0.219
RRIRWRPPRLPRPRPRPGYKPRP | -0.255
RRIRPRPPRLPRPRPRPETQPRP | 0.15
RRIRIRPPRLPRPRPRPNGEPRP | -0.0757

Sequence | shrunken log2 fold change
RRIRVRPPRLPRPRPRPKICPRP | -0.0576
RRIRWRPPRLPRPRPRPYQKPRP | -0.0398
RRIRKRPPRLPRPRPRPYKIPRP | -0.305
RRIRGRPPRLPRPRPRPRCKPRP | 0.476
RRIRGRPPRLPRPRPRPDFKPRP | 0.386
RRIRRRPPRLPRPRPRPKMNPRP | -0.0665
RRIRKRPPRLPRPRPRPIYPPRP | -0.0542
RRIRLRPPRLPRPRPRPHNHPRP | -0.77
RRIRSRPPRLPRPRPRPLMQPRP | -0.0707
RRIRQRPPRLPRPRPRPWVPPRP | -0.152
RRIRGRPPRLPRPRPRPRFNPRP | 0.0824
RRIRERPPRLPRPRPRPHAWPRP | 0.146
RRIRQRPPRLPRPRPRPTYWPRP | -0.247
RRIRSRPPRLPRPRPRPQYCPRP | -0.0172
RRIRWRPPRLPRPRPRPRGYPRP | 0.209
RRIRVRPPRLPRPRPRPPNPPRP | 0.379
RRIRLRPPRLPRPRPRPVIYPRP | -0.224
RRIRIRPPRLPRPRPRPLSPPRP | 1.35
RRIRCRPPRLPRPRPRPDCEPRP | -0.0299
RRIRIRPPRLPRPRPRPEGVPRP | 0.115
RRIRTRPPRLPRPRPRPHRHPRP | -0.211
RRIRKRPPRLPRPRPRPDMNPRP | 0.375
RRIRQRPPRLPRPRPRPLACPRP | -0.231
RRIRGRPPRLPRPRPRPYFRPRP | 0.0786
RRIRVRPPRLPRPRPRPLNSPRP | -0.298
